# Measured values as given in publication doi:10.64898/2025.12.23.696152 (bioRxiv, 2025).
# “And” between values parts separate entries of the source, which are not always exact repeats. Equal entries are not always repeated.
# B1: KIF5C-mScarlet-Strep-tag II (human KIF5C, full length) (natural protein)
# chain: MADPAECSIKVMCRFRPLNEAEILRGDKFIPKFKGDETVVIGQGKPYVFDRVLPPNTTQEQVYNACAKQIVKDVLEGYNGTIFAYGQTSSGKTHTMEGKLHDPQLMGIIPRIAHDIFDHIYSMDENLEFHIKVSYFEIYLDKIRDLLDVSKTNLAVHEDKNRVPYVKGCTERFVSSPEEVMDVIDEGKANRHVAVTNMNEHSSRSHSIFLINIKQENVETEKKLSGKLYLVDLAGSEKVSKTGAEGAVLDEAKNINKSLSALGNVISALAEGTKTHVPYRDSKMTRILQDSLGGNCRTTIVICCSPSVFNEAETKSTLMFGQRAKTIKNTVSVNLELTAEEWKKKYEKEKEKNKTLKNVIQHLEMELNRWRNGEAVPEDEQISAKDQKNLEPCDNTPIIDNIAPVVAGISTEEKEKYDEEISSLYRQLDDKDDEINQQSQLAEKLKQQMLDQDELLASTRRDYEKIQEELTRLQIENEAAKDEVKEVLQALEELAVNYDQKSQEVEDKTRANEQLTDELAQKTTTLTTTQRELSQLQELSNHQKKRATEILNLLLKDLGEIGGIIGTNDVKTLADVNGVIEEEFTMARLYISKMKSEVKSLVNRSKQLESAQMDSNRKMNASERELAACQLLISQHEAKIKSLTDYMQNMEQKRRQLEESQDSLSEELAKLRAQEKMHEVSFQDKEKEHLTRLQDAEEMKKALEQQMESHREAHQKQLSRLRDEIEEKQKIIDEIRDLNQKLQLEQEKLSSDYNKLKIEDQEREMKLEKLLLLNDKREQAREDLKGLEETVSRELQTLHNLRKLFVQDLTTRVKKSVELDNDDGGGSAAQKQKISFLENNLEQLTKVHKQLVRDNADLRCELPKLEKRLRATAERVKALESALKEAKENAMRDRKRYQQEVDRIKEAVRAKNMARRAHSAQIAKPIRPGHYPASSPTAVHAIRGGGGSSSNSTHYQK
# B2: KIF5C-Strep-tag II (natural protein)
# chain: B1 chain
# B3: KIF5C(Δelbow)-mScarlet-Strep-tag II (natural protein)
# chain: MADPAECSIKVMCRFRPLNEAEILRGDKFIPKFKGDETVVIGQGKPYVFDRVLPPNTTQEQVYNACAKQIVKDVLEGYNGTIFAYGQTSSGKTHTMEGKLHDPQLMGIIPRIAHDIFDHIYSMDENLEFHIKVSYFEIYLDKIRDLLDVSKTNLAVHEDKNRVPYVKGCTERFVSSPEEVMDVIDEGKANRHVAVTNMNEHSSRSHSIFLINIKQENVETEKKLSGKLYLVDLAGSEKVSKTGAEGAVLDEAKNINKSLSALGNVISALAEGTKTHVPYRDSKMTRILQDSLGGNCRTTIVICCSPSVFNEAETKSTLMFGQRAKTIKNTVSVNLELTAEEWKKKYEKEKEKNKTLKNVIQHLEMELNRWRNGEAVPEDEQISAKDQKNLEPCDNTPIIDNIAPVVAGISTEEKEKYDEEISSLYRQLDDKDDEINQQSQLAEKLKQQMLDQDELLASTRRDYEKIQEELTRLQIENEAAKDEVKEVLQALEELAVNYDQKSQEVEDKTRANEQLTDELAQKTTTLTTTQRELSQLQELSNHQKKRATEILNLLLKDLGEIGGIIGTNDVKTLADVNGVIEEEFTMARLYISKMKSEVKSLVNRSKQLESAQMDSNRKMNASERELAACQLLISQHEAKIKSLTDYMQNMEQKRRQLEESQDSLSEELAKLRAQLQDAEEMKKALEQQMESHREAHQKQLSRLRDEIEEKQKIIDEIRDLNQKLQLEQEKLSSDYNKLKIEDQEREMKLEKLLLLNDKREQAREDLKGLEETVSRELQTLHNLRKLFVQDLTTRVKKSVELDNDDGGGSAAQKQKISFLENNLEQLTKVHKQLVRDNADLRCELPKLEKRLRATAERVKALESALKEAKENAMRDRKRYQQEVDRIKEAVRAKNMARRAHSAQIAKPIRPGHYPASSPTAVHAIRGGGGSSSNSTHYQK
# B4: KIF5C(Δelbow)-Strep-tag II (natural protein)
# chain: B3 chain
# Legend:
# [1] = molecular target: KIF5C(Δtail)-mScarlet-Strep-tag II (human) (UniProt O60282); assay: mass photometry
# [2] = molecular target: KIF5C(ΔtailΔelbow)-mScarlet-Strep-tag II (human) (UniProt O60282); assay: mass photometry
# [3] = molecular target: the molecule itself; assay: mass photometry
# [4] = molecular target: Taxol-stabilized microtubules polymerised from pig brain tubulin (pig) (UniProt P02550); assay: TIRF single-molecule motility assay
molecule,measurement,setting,value
KIF5C(Δtail)-mScarlet-Strep-tag II (from UniProt O60282 1-914) (domain or fragment),percent of particles as dimer,[1],93%
same,stoichiometry N,[1],2
KIF5C(ΔtailΔelbow)-mScarlet-Strep-tag II (from UniProt O60282 1-914) (domain or fragment),percent of particles as dimer,[2],91%
same,stoichiometry N,[2],2
B1,stoichiometry N,[3],2 and 4
same,landing rate (molecules/μm/s),[4],0.011 and 0.0047
B2,stoichiometry N,[3],4 and 2
B3,stoichiometry N,[3],4
B4,percent of particles as dimer,[3],13%
same,percent of particles as tetramer,[3],62%
same,stoichiometry N,[3],2 and 4
